Measured values reported in patent publication US20250218531A1 (ABSCI, published 2025).
Positions count from the first letter of the chain named.

B1: Multi-step trastuzumab HCDR3 variant ARSGGYYHYGFVY (SEQ ID NO: 544) (Fab, V domains shown)
VH: EVQLVESGGGLVQPGGSLRLSCAASGFNIKDTYIHWVRQAPGKGLEWVARIYPTNGYTRYADSVKGRFTISADTSKNTAYLQMNSLRAEDTAVYYCARSGGYYHYGFVYWGQGTLVTVSS
VL: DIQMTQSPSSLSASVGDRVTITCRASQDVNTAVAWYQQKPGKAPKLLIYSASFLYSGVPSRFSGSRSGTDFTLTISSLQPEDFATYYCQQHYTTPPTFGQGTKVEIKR
B2: Multi-step trastuzumab HCDR3 variant ARSGGYYTYGFDY (SEQ ID NO: 548) (Fab, V domains shown)
VH: B1 VH with H104T, V108D
VL: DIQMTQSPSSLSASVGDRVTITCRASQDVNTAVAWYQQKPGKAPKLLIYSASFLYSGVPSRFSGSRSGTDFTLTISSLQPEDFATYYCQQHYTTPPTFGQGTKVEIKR
B3: Multi-step trastuzumab HCDR3 variant ARSRGSSSYMMDY (SEQ ID NO: 512) (Fab, V domains shown)
VH: B1 VH with G100R, Y102S, Y103S, H104S, G106M, F107M, V108D
VL: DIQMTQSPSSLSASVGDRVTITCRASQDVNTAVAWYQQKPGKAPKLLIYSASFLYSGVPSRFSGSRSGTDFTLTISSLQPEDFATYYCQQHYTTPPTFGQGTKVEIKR
B4: Multi-step trastuzumab HCDR3 variant ARSSGSSYYGFDY (SEQ ID NO: 526) (Fab, V domains shown)
VH: B1 VH with G100S, Y102S, Y103S, H104Y, V108D
VL: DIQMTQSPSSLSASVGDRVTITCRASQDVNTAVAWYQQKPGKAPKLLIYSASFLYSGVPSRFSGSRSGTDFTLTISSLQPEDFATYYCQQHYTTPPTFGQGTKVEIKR
B5: Multi-step trastuzumab HCDR3 variant ARSSGYYYYGFVY (SEQ ID NO: 540) (Fab, V domains shown)
VH: B1 VH with G100S, H104Y
VL: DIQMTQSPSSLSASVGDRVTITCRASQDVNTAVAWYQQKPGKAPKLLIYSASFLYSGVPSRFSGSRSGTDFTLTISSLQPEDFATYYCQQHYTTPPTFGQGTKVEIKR
B6: Multi-step trastuzumab HCDR3 variant ARSTGSGFYSYDY (SEQ ID NO: 547) (Fab, V domains shown)
VH: B1 VH with G100T, Y102S, Y103G, H104F, G106S, F107Y, V108D
VL: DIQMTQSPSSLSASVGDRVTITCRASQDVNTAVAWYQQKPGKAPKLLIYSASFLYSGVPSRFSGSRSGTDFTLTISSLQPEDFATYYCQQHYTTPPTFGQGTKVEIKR
B7: Multi-step trastuzumab HCDR3 variant ARSYGSGSYSFDY (SEQ ID NO: 514) (Fab, V domains shown)
VH: B1 VH with G100Y, Y102S, Y103G, H104S, G106S, V108D
VL: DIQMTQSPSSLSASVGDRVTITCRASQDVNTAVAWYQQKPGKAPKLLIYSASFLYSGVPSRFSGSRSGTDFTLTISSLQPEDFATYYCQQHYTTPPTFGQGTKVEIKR
B8: Multi-step trastuzumab HCDR3 variant ARTGGSSYYAYDY (SEQ ID NO: 520) (Fab, V domains shown)
VH: B1 VH with S99T, Y102S, Y103S, H104Y, G106A, F107Y, V108D
VL: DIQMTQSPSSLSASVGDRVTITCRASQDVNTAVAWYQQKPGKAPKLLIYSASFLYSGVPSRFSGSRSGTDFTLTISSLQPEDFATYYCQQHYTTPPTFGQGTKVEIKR
B9: Multi-step trastuzumab HCDR3 variant ARVGGRGYYAYDY (SEQ ID NO: 552) (Fab, V domains shown)
VH: B1 VH with S99V, Y102R, Y103G, H104Y, G106A, F107Y, V108D
VL: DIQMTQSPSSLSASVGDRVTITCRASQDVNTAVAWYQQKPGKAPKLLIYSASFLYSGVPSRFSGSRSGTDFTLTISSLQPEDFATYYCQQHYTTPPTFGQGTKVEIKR
B10: Multi-step trastuzumab HCDR3 variant ARVGGYGYYSYDY (SEQ ID NO: 539) (Fab, V domains shown)
VH: B1 VH with S99V, Y103G, H104Y, G106S, F107Y, V108D
VL: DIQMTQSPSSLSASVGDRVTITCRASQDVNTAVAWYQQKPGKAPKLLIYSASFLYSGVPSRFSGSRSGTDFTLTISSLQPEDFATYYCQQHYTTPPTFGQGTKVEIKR
B11: Multi-step trastuzumab HCDR3 variant ARYGGDYYYYYDY (SEQ ID NO: 527) (Fab, V domains shown)
VH: B1 VH with S99Y, Y102D, H104Y, G106Y, F107Y, V108D
VL: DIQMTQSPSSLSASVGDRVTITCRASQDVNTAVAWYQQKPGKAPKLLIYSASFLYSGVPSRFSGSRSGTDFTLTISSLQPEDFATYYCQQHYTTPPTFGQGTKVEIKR
B12: Multi-step trastuzumab HCDR3 variant ARYGGGYYYYYDY (SEQ ID NO: 531) (Fab, V domains shown)
VH: B1 VH with S99Y, Y102G, H104Y, G106Y, F107Y, V108D
VL: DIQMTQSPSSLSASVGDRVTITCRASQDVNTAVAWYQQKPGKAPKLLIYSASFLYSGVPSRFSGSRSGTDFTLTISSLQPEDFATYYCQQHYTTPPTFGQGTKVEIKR
B13: Multi-step trastuzumab HCDR3 variant ARYGGRGYYSFDY (SEQ ID NO: 533) (Fab, V domains shown)
VH: B1 VH with S99Y, Y102R, Y103G, H104Y, G106S, V108D
VL: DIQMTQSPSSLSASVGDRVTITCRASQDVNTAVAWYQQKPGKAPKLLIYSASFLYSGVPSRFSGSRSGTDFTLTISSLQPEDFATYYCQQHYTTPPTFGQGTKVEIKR
B14: Multi-step trastuzumab HCDR3 variant ARYGGRSSYYFDY (SEQ ID NO: 545) (Fab, V domains shown)
VH: B1 VH with S99Y, Y102R, Y103S, H104S, G106Y, V108D
VL: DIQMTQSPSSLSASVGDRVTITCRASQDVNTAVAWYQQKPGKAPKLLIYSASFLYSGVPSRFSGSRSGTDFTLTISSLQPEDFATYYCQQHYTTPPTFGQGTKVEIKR
B15: Multi-step trastuzumab HCDR3 variant ARYGGSSNYYYDY (SEQ ID NO: 518) (Fab, V domains shown)
VH: B1 VH with S99Y, Y102S, Y103S, H104N, G106Y, F107Y, V108D
VL: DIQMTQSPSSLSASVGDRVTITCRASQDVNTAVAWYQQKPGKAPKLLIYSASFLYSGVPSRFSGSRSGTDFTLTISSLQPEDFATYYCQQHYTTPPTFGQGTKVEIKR
B16: Multi-step trastuzumab HCDR3 variant ARYGGSSYYYFDY (SEQ ID NO: 528) (Fab, V domains shown)
VH: B1 VH with S99Y, Y102S, Y103S, H104Y, G106Y, V108D
VL: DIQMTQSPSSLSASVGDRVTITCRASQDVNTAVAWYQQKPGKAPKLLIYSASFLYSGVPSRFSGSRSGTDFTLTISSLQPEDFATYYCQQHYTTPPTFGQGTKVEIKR
B17: Multi-step trastuzumab HCDR3 variant ARYGGSSYYYYDY (SEQ ID NO: 529) (Fab, V domains shown)
VH: B1 VH with S99Y, Y102S, Y103S, H104Y, G106Y, F107Y, V108D
VL: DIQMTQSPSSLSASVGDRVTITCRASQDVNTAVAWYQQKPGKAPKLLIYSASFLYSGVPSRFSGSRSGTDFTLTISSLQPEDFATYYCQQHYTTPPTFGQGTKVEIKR
B18: Multi-step trastuzumab HCDR3 variant ARYGGSYFYYYSY (SEQ ID NO: 517) (Fab, V domains shown)
VH: B1 VH with S99Y, Y102S, H104F, G106Y, F107Y, V108S
VL: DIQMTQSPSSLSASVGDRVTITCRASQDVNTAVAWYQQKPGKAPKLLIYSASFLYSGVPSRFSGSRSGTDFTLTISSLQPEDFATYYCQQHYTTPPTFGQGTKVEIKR
B19: Multi-step trastuzumab HCDR3 variant ARYRGRGFYSFDY (SEQ ID NO: 532) (Fab, V domains shown)
VH: B1 VH with S99Y, G100R, Y102R, Y103G, H104F, G106S, V108D
VL: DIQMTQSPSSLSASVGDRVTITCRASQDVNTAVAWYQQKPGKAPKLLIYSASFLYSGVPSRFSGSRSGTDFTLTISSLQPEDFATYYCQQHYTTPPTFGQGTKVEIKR
B20: Multi-step trastuzumab HCDR3 variant ARYSGDSYYYYDY (SEQ ID NO: 550) (Fab, V domains shown)
VH: B1 VH with S99Y, G100S, Y102D, Y103S, H104Y, G106Y, F107Y, V108D
VL: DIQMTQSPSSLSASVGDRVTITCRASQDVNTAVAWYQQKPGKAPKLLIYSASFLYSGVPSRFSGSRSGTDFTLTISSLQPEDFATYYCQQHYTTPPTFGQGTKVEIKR
B21: Multi-step trastuzumab HCDR3 variant ARYSGSSYYYYDY (SEQ ID NO: 536) (Fab, V domains shown)
VH: B1 VH with S99Y, G100S, Y102S, Y103S, H104Y, G106Y, F107Y, V108D
VL: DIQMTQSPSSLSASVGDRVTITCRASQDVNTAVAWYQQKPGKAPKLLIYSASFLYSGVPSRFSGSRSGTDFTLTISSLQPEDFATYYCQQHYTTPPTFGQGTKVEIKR

Molecular target: human epidermal growth factor receptor 2 (HER2) extracellular domain (human, UniProt P04626 23-629)
Test: SPR, Fab format

Binder	Kd [nM]	log(KD (M)) [log M]
B1	228	-6.64
B2	338	-6.47
B3	566	-6.25
B4	668	-6.18
B5	157	-6.8
B6	330	-6.48
B7	495	-6.31
B8	901	-6.05
B9	2290	-5.64
B10	169	-6.77
B11	57	-7.24
B12	57.6	-7.24
B13	26.2	-7.58
B14	257	-6.59
B15	441	-6.36
B16	97.2	-7.01
B17	72.3	-7.14
B18	7.31	-8.14
B19	22	-7.66
B20	366	-6.44
B21	423	-6.37
